Where “and” joins values, the source holds several entries; their conditions need not be identical. Identical values can stand only once.

Experimental findings from FireProtDB (doi:10.1002/cbic.201402128) are described below.

The conditions of this series: Sphingobium indicum (strain DSM 16413 / CCM 7287 / MTCC 6362 / UT26 / NBRC 101211 / UT26S); pH 7.5; Thermal; fluorescence; Na-Hepes 50 mM; reversible: no; whole UniProt chain shown.

B1: Haloalkane dehalogenase wild type, D4Z2G1 (protein)
chain: MSLGAKPFGEKKFIEIKGRRMAYIDEGTGDPILFQHGNPTSSYLWRNIMPHCAGLGRLIACDLIGMGDSDKLDPSGPERYAYAEHRDYLDALWEALDLGDRVVLVVHDWGSALGFDWARRHRERVQGIAYMEAIAMPIEWADFPEQDRDLFQAFRSQAGEELVLQDNVFVEQVLPGLILRPLSEAEMAAYREPFLAAGEARRPTLSWPRQIPIAGTPADVVAIARDYAGWLSESPIPKLFINAEPGALTTGRMRDFCRTWPNQTEITVAGAHFIQEDSPDEIGAAIAAFVRRLRPA
In the case of B1, the Tm (commonly the temperature at the midpoint of the melting transition) is 51 °C and 49 °C.
